B1: 1503_H05 (PG16) (antibody, V domains shown)
VH: QEKLVESGGGVVQPGGSLRLSCLASGFTFHKYGMHWVRQAPGKGLEWVALISDDGMRKYHSDSMWGRVTISRDNSKNTLYLQFSSLKVEDTAMFFCAREAGGPIWHDDVKYYDFNDGYYNYHYMDVWGKGTIVTVSS
VL: QSALTQPASVSGSPGQTITISCNGTRSDVGGFDSVSWYQQSPGKAPKVMVFDVSHRPSGISNRFSGSKSGNTASLTISGLHIEDEGDYFCSSLTDRSHRIFGGGTKVTVLG
B2: 1469_M23 (PG16) (antibody, V domains shown)
VH: B1 VH with I132T
VL: B1 VL with K44R, V107L
B3: 1489_I13 (PG16) (antibody, V domains shown)
VH: B1 VH with K3Q, V5L, D62N, I132T
VL: B1 VL with R26S
B4: 1456_A12 (PG16) (antibody, V domains shown)
VH: B1 VH with Q1H, K3Q, S7A, K87R, I132K
VL: B1 VL with R26S, S27R, I60M, V107L

Where a chain is given by its changes, count along the chain named.

The first assay addresses ADA pseudovirus Env (HIV-1). The assay can be described thus: cell-based or functional assay.
The molecule B1 gave an IC50 (ug/ml), pseudovirus neutralization, TZM-bl assay of 0.003 µg/mL.

In turn, B2 registered an IC50 (ug/ml), pseudovirus neutralization, TZM-bl assay of 0.005 µg/mL.

In turn, B3 gave an IC50 (ug/ml), pseudovirus neutralization, TZM-bl assay of 0.008 µg/mL.

As to B4, the IC50 (ug/ml), pseudovirus neutralization, TZM-bl assay is 0.005 µg/mL.

A further assay addresses JR-CSF pseudovirus (HIV-1 Env on the virions) (HIV-1) (UniProt P20871). In words: cell-based or functional assay.
B1: the IC50 (ug/ml), pseudovirus neutralization, TZM-bl assay was found to be 0.001 µg/mL.

As to B2, the IC50 (ug/ml), pseudovirus neutralization, TZM-bl assay is 0.002 µg/mL.

The molecule B3 returned an IC50 (ug/ml), pseudovirus neutralization, TZM-bl assay of 0.002 µg/mL.

B4 showed an IC50 (ug/ml), pseudovirus neutralization, TZM-bl assay of 0.001 µg/mL.

Another assay deals with JR-FL (E168K) pseudovirus Env (HIV-1). The assay can be described thus: cell-based or functional assay.
B1 returned an IC50 (ug/ml), pseudovirus neutralization, TZM-bl assay of 0.002 µg/mL.

The molecule B2 showed an IC50 (ug/ml), pseudovirus neutralization, TZM-bl assay of 0.005 µg/mL.

With B3, the IC50 (ug/ml), pseudovirus neutralization, TZM-bl assay amounted to 0.005 µg/mL.

In turn, B4 returned an IC50 (ug/ml), pseudovirus neutralization, TZM-bl assay of 0.003 µg/mL.

The target of the next assay is 92RW020 pseudovirus Env (HIV-1). In words: cell-based or functional assay.
Molecule B1 had an IC50 (ug/ml), pseudovirus neutralization, TZM-bl assay of 0.02 µg/mL.

The molecule B2 gave an IC50 (ug/ml), pseudovirus neutralization, TZM-bl assay of 0.05 µg/mL.

B3 yielded an IC50 (ug/ml), pseudovirus neutralization, TZM-bl assay of 0.03 µg/mL.

With B4, the IC50 (ug/ml), pseudovirus neutralization, TZM-bl assay was 0.05 µg/mL.

The target in a further assay is JR-CSF (Y318A) pseudovirus Env (HIV-1) (UniProt P20871). The assay can be described thus: cell-based or functional assay.
In the case of B1, the IC50 (ug/ml), pseudovirus neutralization, TZM-bl assay was above 1 µg/mL.

On to B2, for which the IC50 (ug/ml), pseudovirus neutralization, TZM-bl assay was above 1 µg/mL.

B3 showed an IC50 (ug/ml), pseudovirus neutralization, TZM-bl assay above 1 µg/mL.

Turning to B4, the IC50 (ug/ml), pseudovirus neutralization, TZM-bl assay was above 1 µg/mL.

Another assay addresses JR-CSF (I309A) pseudovirus Env (HIV-1) (UniProt P20871). The assay can be described thus: cell-based or functional assay.
In turn, B1 displayed an IC50 (ug/ml), pseudovirus neutralization, TZM-bl assay above 1 µg/mL.

On to B2, for which the IC50 (ug/ml), pseudovirus neutralization, TZM-bl assay was above 1 µg/mL.

On to B3, for which the IC50 (ug/ml), pseudovirus neutralization, TZM-bl assay is above 1 µg/mL.

The molecule B4 gave an IC50 (ug/ml), pseudovirus neutralization, TZM-bl assay above 1 µg/mL.
